Results reported in US20250043001A1 (Xencor, published 2025).
Changes are numbered by the printed parent chain. Each block holds one binder with its values, some of them ahead of it.

What was measured:
human CD28 [1] = biological target: T1, human CD28 (human, UniProt P10747 19-152); test: affinity; method not given
T1 construct: also called Cluster of Differentiation 28; Tp44

human CD28 [2] = biological target: T1, human CD28; test: CD28 affinity as quoted in the text; method not given
CEACAM5 [3] = biological target: T2, CEACAM5 (UniProt P06731 35-685); test: affinity at 25 C (Octet per FIG. 79 legend)
T2 construct: also called carcinoembryonic antigen-related cell adhesion molecule 5; CD66e
T2 sequence (looked up): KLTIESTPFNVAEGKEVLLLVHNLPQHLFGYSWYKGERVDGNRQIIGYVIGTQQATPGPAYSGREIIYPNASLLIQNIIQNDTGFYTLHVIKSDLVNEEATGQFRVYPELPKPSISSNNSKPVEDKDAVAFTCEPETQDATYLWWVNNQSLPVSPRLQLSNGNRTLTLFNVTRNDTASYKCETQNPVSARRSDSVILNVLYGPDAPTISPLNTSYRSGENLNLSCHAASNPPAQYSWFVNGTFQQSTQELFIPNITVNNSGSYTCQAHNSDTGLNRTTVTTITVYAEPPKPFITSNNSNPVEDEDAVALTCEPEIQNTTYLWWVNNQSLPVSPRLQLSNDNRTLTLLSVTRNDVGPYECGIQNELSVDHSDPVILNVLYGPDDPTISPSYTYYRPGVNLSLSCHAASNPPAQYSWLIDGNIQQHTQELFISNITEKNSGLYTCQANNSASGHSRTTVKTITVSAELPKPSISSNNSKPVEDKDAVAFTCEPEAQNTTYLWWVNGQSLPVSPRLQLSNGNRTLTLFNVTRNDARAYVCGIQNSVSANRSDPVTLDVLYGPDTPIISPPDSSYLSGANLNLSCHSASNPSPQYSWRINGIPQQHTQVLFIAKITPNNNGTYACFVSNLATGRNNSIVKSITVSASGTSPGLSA

STEAP1 = biological target: T3, STEAP1 (UniProt Q9UHE8 1-339, limits assumed); test: flow cytometry, bivalent mAbs on C4-2B cells
T3 construct: whole, on cells; also called Six-Transmembrane Epithelial Antigen of the Prostate 1
Method: Optimized humanized STEAP-A variants were then engineered in order to improve their binding affinity to STEAP-1. In the first round, 82 variant VLs were engineered as L1.4-L1.85 and 151 variant VHs were engineered as H1.39-H1.189. Variants were produced as bivalent mAbs, the sequences for which are depicted in FIG. 30. The bivalent mAbs were then screened for binding to STEAP-1 on C4-2B cells. Cells were mixed with mAbs and incubated for 1 hour on ice, washed with PBS, stained with secondary antibody for 1 hour on ice, and washed again before analyzing binding utilizing flow cytometry.
In the second round, 34 variant VLs were engineered and designated as L1.86-L1.119 and 39 variant VHs were engineered and designated as H1.190-H1.228. Bivalent mAbs from the second round of affinity maturation were also screened for binding to STEAP-1 expressed on C4-2B cells. Flow cytometry analysis was used to determine relative maximum MFI values, AUC values, and approximate EC50 values for each test article, as summarized in FIG. 34. […] A final set of variable heavy domain substitutions were engineered and designated H1.229- H1.232. […] Sequences for each variant VH and VL are depicted in FIGS. 31 and 32, respectively.

human CD28 [4] = biological target: T1, human CD28; test: CD28 affinity of the scFv arm as quoted in the text; method not given
CEACAM5 [5] = biological target: T2, CEACAM5; test: CEACAM5 affinity as quoted in the text; method not given
CEACAM5 [6] = biological target: T2, CEACAM5; test: binding affinity (Octet at 25 C per FIG. 80 legend)
CEACAM8 = biological target: T4, CEACAM8 (UniProt P31997 35-320); test: as above
T4 sequence (looked up): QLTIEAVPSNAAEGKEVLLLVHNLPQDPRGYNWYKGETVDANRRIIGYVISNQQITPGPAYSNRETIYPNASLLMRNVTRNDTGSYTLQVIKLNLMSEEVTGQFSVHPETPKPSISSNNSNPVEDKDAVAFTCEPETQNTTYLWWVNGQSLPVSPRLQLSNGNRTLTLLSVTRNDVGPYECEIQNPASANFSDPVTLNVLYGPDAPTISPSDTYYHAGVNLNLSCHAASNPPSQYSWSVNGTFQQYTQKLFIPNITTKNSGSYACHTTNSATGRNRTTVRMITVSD

B1: 1A7_H1.14_L1 (antibody, V domains shown)
VH: EVQLLESGGGLVQPGGSLRLSCAASGFTFSSYYMSWVRQAPGKGLEWVSTISESGDSTYYADSVKGRFTISRDNSKNTLYLQMNSLRAEDTAVYYCAKSGPGLRQVGFDYWGQGTLVTVSS
VL: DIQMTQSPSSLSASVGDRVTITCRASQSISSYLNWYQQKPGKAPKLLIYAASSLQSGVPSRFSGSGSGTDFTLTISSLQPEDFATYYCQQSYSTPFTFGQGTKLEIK
notes: Anti-CD28 VH/VL pair; also called 1A7[CD28]_H1.14_L1
Kd (human CD28 [1]): ~200 nM

B2: XENP45915 (bispecific antibody)
heavy: EVQLVESGGGLVQPGGSLRLSCAASGFTFTDYYMNWVRQAPGKGLEWVGFIGNKANAYTTEYSASVKGRFTISRDKSKSSLYLQMNSLKTEDTAVYYCTRDRGLRFYFDYWGQGTLVTVSSASTKGPSVFPLAPSSKSTSGGTAALGCLVKDYFPEPVTVSWNSGALTSGVHTFPAVLQSSGLYSLSSVVTVPSSSLGTQTYICNVNHKPSDTKVDKKVEPKSCDKTHTCPPCPAPPVAGPSVFLFPPKPKDTLMISRTPEVTCVVVDVKHEDPEVKFNWYVDGVEVHNAKTKPREEEYNSTYRVVSVLTVLHQDWLNGKEYKCKVSNKALPAPIEKTISKAKGQPREPQVYTLPPSREEMTKNQVSLTCDVSGFYPSDIAVEWESDGQPENNYKTTPPVLDSDGSFFLYSKLTVDKSRWEQGDVFSCSVLHEALHSHYTQKSLSLSPGK
scFv-Fc: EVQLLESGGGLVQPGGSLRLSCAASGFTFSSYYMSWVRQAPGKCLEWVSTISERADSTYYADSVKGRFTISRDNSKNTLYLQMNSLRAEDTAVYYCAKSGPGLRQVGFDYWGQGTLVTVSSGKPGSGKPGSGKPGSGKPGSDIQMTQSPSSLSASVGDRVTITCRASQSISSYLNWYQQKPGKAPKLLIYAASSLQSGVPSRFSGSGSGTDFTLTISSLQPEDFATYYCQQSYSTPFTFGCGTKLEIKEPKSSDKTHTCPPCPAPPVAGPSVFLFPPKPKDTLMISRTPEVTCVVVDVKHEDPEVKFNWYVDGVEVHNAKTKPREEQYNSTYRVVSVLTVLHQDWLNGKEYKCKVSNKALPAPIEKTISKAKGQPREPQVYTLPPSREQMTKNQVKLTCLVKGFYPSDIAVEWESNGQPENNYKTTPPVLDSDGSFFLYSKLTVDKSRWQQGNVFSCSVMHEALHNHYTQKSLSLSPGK
light: EIVLTQSPATLSLSPGERATLSCRASSSVTYIHWYQQKPGQAPKSLIYATSNLASGIPARFSGSGSGTDFTLTISSLEPEDFAVYYCQHWSSKPPTFGGGTKVEIKRTVAAPSVFIFPPSDEQLKSGTASVVCLLNNFYPREAKVQWKVDNALQSGNSQESVTEQDSKDSTYSLSSTLTLSKADYEKHKVYACEVTHQGLSSPVTKSFNRGEC
Kd (human CD28 [2]): 26 nM

B4: CEA-A_H0L0 (antibody, V domains shown)
VH: EVKLVESGGGLVQPGGSLRLSCATSGFTFTDYYMNWVRQPPGKALEWLGFIGNKANGYTTEYSASVKGRFTISRDKSQSILYLQMNTLRAEDSATYYCTRDRGLRFYFDYWGQGTTLTVSS
VL: QTVLSQSPAILSASPGEKVTMTCRASSSVTYIHWYQQKPGSSPKSWIYATSNLASGVPARFSGSGSGTSYSLTISRVEAEDAATYYCQHWSSKPPTFGGGTKLEIK
notes: also called parental CEA-A
Kd (CEACAM5 [3]): 0.7 to 2 nM

B5: XENP46500 (antibody, human IgG1, kappa, V domains shown)
VH: QVQVQESGPGLVKPSQTLSLTCTVSGYSITSDYAWNWIRQPPGKKLEWIGYISNSGSTSYNPSLKSRVTISRDTSKNQFSLKLSSVTAADTAVYYCARERNYDYELYYYAMDYWGQGTLVTVSS
VL: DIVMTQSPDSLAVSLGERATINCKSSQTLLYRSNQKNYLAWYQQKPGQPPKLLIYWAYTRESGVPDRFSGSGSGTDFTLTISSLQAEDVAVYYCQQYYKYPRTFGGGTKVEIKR
notes: also called H1.21 and L1.115; copies: 2 + 2
binding result (STEAP1): binds

B7: XENP44332 (bispecific antibody)
heavy: EVKLVESGGGLVQPGGSLRLSCATSGFTFTDYYMNWVRQPPGKALEWLGFIGNKANGYTTEYSASVKGRFTISRDKSQSILYLQMNTLRAEDSATYYCTRDRGLRFYFDYWGQGTTLTVSSASTKGPSVFPLAPSSKSTSGGTAALGCLVKDYFPEPVTVSWNSGALTSGVHTFPAVLQSSGLYSLSSVVTVPSSSLGTQTYICNVNHKPSDTKVDKKVEPKSCDKTHTCPPCPAPPVAGPSVFLFPPKPKDTLMISRTPEVTCVVVDVKHEDPEVKFNWYVDGVEVHNAKTKPREEEYNSTYRVVSVLTVLHQDWLNGKEYKCKVSNKALPAPIEKTISKAKGQPREPQVYTLPPSREEMTKNQVSLTCDVSGFYPSDIAVEWESDGQPENNYKTTPPVLDSDGSFFLYSKLTVDKSRWEQGDVFSCSVMHEALHNHYTQKSLSLSPGK
scFv-Fc: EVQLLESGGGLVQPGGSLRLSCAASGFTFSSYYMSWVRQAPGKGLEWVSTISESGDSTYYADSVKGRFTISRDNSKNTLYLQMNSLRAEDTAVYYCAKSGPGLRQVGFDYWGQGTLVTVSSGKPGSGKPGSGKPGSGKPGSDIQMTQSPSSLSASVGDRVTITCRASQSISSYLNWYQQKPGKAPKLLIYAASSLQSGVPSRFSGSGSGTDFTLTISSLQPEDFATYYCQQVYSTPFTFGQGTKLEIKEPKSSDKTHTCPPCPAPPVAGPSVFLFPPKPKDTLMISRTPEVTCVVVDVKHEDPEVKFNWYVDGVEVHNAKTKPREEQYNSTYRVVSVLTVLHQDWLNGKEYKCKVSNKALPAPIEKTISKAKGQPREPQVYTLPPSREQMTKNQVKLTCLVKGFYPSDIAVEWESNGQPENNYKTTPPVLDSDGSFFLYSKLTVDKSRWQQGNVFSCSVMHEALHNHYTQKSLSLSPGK
light: QTVLSQSPAILSASPGEKVTMTCRASSSVTYIHWYQQKPGSSPKSWIYATSNLASGVPARFSGSGSGTSYSLTISRVEAEDAATYYCQHWSSKPPTFGGGTKLEIKRTVAAPSVFIFPPSDEQLKSGTASVVCLLNNFYPREAKVQWKVDNALQSGNSQESVTEQDSKDSTYSLSSTLTLSKADYEKHKVYACEVTHQGLSSPVTKSFNRGEC
Kd (human CD28 [4]): 37 nM

B10: CEA-A_H1L2 (antibody, V domains shown)
VH: EVQLVESGGGLVQPGGSLRLSCATSGFTFTDYYMNWVRQAPGKALEWVGFIGNKANGYTTEYSASVKGRFTISRDKSKSSLYLQMNSLKTEDTAVYYCTRDRGLRFYFDYWGQGTLVTVSS
VL: EIVLTQSPATLSLSPGERATLSCRASSSVTYIHWYQQKPGQAPRLLIYATSNLASGIPARFSGSGSGTDFTLTISSLEPEDFAVYYCQHWSSKPPTFGGGTKVEIK
notes: also called HIL2
Kd (CEACAM5 [3]): 57 to 69 nM

B13: CEA-A_H1L1 (antibody, V domains shown)
VH: B10 VH
VL: B10 VL with E1Q, I2T, A42S, L45S, I57V, F70Y
notes: also called humanized H1L1
Kd (CEACAM5 [3]): 5 to 8 nM

B14: CEA-A_H1.7_L2.15 (antibody, V domains shown)
VH: B10 VH with T24A, A44G, G57A
VL: B10 VL with R44K, L45S
Kd (CEACAM5 [6]): 13 nM
Kd (CEACAM8): 3330 nM

Further lines, results first:

Kd (human CD28 [2]): 130 nM
B3: XENP44915 (bispecific antibody, human IgG1, kappa)
heavy: B2 heavy
scFv-Fc: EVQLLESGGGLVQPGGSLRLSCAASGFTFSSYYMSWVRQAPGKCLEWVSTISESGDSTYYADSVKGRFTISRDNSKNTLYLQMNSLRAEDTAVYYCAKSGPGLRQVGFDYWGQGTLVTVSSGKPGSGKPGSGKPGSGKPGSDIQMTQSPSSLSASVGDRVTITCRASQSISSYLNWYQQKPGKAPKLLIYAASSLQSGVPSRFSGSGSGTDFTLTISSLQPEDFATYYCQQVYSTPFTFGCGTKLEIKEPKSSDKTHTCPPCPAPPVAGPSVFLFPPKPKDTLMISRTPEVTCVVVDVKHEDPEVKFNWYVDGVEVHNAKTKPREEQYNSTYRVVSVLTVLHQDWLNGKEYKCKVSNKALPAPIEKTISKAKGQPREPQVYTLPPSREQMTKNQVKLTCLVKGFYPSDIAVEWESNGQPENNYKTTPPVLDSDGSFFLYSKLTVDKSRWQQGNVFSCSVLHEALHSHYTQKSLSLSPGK
light: B2 light

binding result (STEAP1): binds
B6: XENP45835 (antibody, V domains shown)
VH: B5 VH with E105D, L106D
VL: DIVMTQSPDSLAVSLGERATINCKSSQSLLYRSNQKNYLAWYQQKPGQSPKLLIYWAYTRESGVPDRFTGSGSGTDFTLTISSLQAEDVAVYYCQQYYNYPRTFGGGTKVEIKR
notes: also called L1.56; H1 and L1.56; copies: 2 + 2

Kd (CEACAM5 [5]): ~0.7 nM
B8: XENP44338 (bispecific antibody)
heavy: B7 heavy
scFv-Fc: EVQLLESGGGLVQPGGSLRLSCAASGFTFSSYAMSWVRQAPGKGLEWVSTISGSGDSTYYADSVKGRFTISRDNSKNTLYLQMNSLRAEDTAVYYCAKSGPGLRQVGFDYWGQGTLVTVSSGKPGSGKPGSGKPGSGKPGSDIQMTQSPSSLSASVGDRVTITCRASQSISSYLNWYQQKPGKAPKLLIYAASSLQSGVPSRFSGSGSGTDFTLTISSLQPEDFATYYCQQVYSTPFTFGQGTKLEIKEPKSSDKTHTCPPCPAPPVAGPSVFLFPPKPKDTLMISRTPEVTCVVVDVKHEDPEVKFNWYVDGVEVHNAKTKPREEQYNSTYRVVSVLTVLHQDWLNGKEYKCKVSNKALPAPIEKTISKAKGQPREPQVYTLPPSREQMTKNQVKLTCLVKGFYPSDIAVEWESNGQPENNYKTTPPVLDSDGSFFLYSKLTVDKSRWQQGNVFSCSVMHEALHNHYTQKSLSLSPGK
light: B7 light

Kd (human CD28 [4]): 96 nM
B9: XENP44560 (bispecific antibody)
heavy: B7 heavy
scFv-Fc: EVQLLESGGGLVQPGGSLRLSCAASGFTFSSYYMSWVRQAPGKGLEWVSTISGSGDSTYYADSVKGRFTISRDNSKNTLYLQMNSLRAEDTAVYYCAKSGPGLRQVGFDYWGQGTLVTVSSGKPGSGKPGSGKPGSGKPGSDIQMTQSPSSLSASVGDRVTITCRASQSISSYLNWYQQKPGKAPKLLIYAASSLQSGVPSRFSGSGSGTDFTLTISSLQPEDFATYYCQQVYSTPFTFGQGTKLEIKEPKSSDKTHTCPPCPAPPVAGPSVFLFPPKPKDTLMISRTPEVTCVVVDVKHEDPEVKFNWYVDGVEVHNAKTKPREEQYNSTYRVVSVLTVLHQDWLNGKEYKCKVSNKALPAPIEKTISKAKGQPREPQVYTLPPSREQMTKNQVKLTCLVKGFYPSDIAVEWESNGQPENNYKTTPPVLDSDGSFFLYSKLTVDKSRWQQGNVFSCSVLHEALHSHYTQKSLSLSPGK
light: B7 light
notes: copies: 1 + 1 + 1

Kd (CEACAM5 [5]): 57 nM
B11: XENP44746 (bispecific antibody)
chain 1: B10 VH
chain 2: B10 VL
chain 3: not shown

Kd (CEACAM5 [5]): 5 nM
B12: XENP44745 (bispecific antibody)
chain 1: B10 VH
chain 2: B10 VL with E1Q, I2T, A42S, L45S, I57V, F70Y
chain 3: not shown
